This data set can be described thus: collision cross section of modified peptide (TIMS, N2, iRT-aligned); higher = larger / more extended gas-phase ion. Summed up: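 On a timsTOF Pro/HT (dda-PASEF, nitrogen, ~2.4 mbar), synthetic peptide pools were analysed after a 120-min nanoflow C18 separation at 60 °C and identified in MaxQuant. Three reference ions served for 1/K0 calibration, with run-wise alignment to the median iRT peptide deviation. Collision cross section comes from the Mason-Schamp equation, using the most abundant feature per charge state averaged over 1–3 technical replicates.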

Setting [1] is: charge state: 2, modification: Nitro (Y).
Setting [2] is: charge state: 2, modification: Propionyl.
Setting [3] is: charge state: 3, modification: Dimethyl (K).
The mark [4] stands for this setting: charge state: 2, modification: Crotonyl.
The mark [5] stands for this setting: charge state: 3, modification: Crotonyl.
[6] abbreviates: charge state: 2, modification: Acetyl (K).
[7] abbreviates: charge state: 2, modification: HexNAc (ST).
Where [8] appears, read: charge state: 2, modification: Phospho (Y).
Where [9] appears, read: charge state: 2, modification: GlyGly (K).
[10] abbreviates: charge state: 3, modification: GlyGly (K).
Where [11] appears, read: charge state: 2, modification: Hydroxyproline.
[12] abbreviates: charge state: 3, modification: Methyl (R).
Where [13] appears, read: charge state: 3, modification: Hydroxyproline.
The mark [14] stands for this setting: charge state: 2, modification: Glutarylation.
[15] abbreviates: charge state: 3, modification: Glutarylation.
[16] abbreviates: charge state: 2, modification: Formyl.
Setting [17] is: charge state: 2, modification: hydroxyisobutyryl.
[18] abbreviates: charge state: 3, modification: hydroxyisobutyryl.
Where [19] appears, read: charge state: 2, modification: Methyl (R).
[20] abbreviates: charge state: 2, modification: Malonyl.
Setting [21] is: charge state: 3, modification: Methyl (K).
Setting [22] is: charge state: 2, modification: Methyl (K).
Setting [23] is: charge state: 2, modification: Dimethyl (K).
Setting [24] is: charge state: 2, modification: Trimethyl (K).
The mark [25] stands for this setting: charge state: 3, modification: Trimethyl (K).

In the supplement of paper PMC10598134 one finds collision cross section data, which are given here for 58 substances.

± gives the standard deviation.

Consider “GNDISSGTVLSDYVGSGPPK [_GNDISSGTVLSDY(Nitro (Y))VGSGPPK_]”, for which, under setting [1], the collision cross section is on record as 466.4 ± 0.42 Å².
In the case of “GGPGSTLSFVGKR [_GGPGSTLSFVGK(Propionyl)R_]”, the collision cross section under setting [2] is 384.23 ± 0.44 Å².
“ANEKTESSSAQQVAVSR [_ANEK(Dimethyl (K))TESSSAQQVAVSR_]” displayed a collision cross section under setting [3] of 490.79 ± 1.6 Å².
Substance “ANLEKAQAELVGTADEATR [_ANLEK(Crotonyl)AQAELVGTADEATR_]” registered a collision cross section under setting [4] of 478.55 ± 1.5 Å² and a collision cross section under setting [5] of 577.75 ± 0.5 Å².
For “VFIGNLNTLVVKK [_VFIGNLNTLVVK(Crotonyl)K_]”, the collision cross section reads like this: under setting [4], 413.58 ± 0.34 Å²; under setting [5], 479.51 Å².
Under setting [6], LLEEEDSKLK [_LLEEEDSK(Acetyl (K))LK_] came in with a collision cross section of 378.84 ± 0.45 Å².
In the case of FYTEDSPGLK [_FY(Nitro (Y))TEDSPGLK_], the collision cross section under setting [1] is listed as 356.24 ± 0.17 Å².
As for “INNFSADIKDSK [_INNFSADIK(Propionyl)DSK_]”, the collision cross section under setting [2] is reported as 401.7 ± 0.42 Å².
On to HVSPVTPPR [_HVSPVT(HexNAc (ST))PPR_], for which the collision cross section under setting [7] came out at 366.95 ± 0.8 Å².
In the case of LGHYATQLQK [_LGHYAT(HexNAc (ST))QLQK_], the collision cross section under setting [7] is 388.93 ± 0.68 Å² and the collision cross section (charge state: 3, modification: HexNAc (ST)) was 446.62 ± 0.17 Å².
On to VETFSGVYK [_VETFSGVY(Phospho (Y))K_], for which the collision cross section under setting [8] is on record as 345.95 ± 0.75 Å².
In turn, “LQEKVESAQSEQK [_LQEK(Crotonyl)VESAQSEQK_]” came in with a collision cross section under setting [4] of 419.55 ± 0.85 Å² and a collision cross section under setting [5] of 502.91 ± 1.6 Å².
As for “DTGEKLTVAENEAETK [_DTGEK(GlyGly (K))LTVAENEAETK_]”, the collision cross section is, setting by setting: under setting [9], 443.91 ± 1.6 Å²; under setting [10], 490.28 ± 1.9 Å².
In the case of “GEQGEPGAPGIR [_GEQGEP(Hydroxyproline)GAPGIR_]”, the collision cross section under setting [11] amounted to 349.07 ± 0.25 Å².
In the case of VVPGYGHAVLR [_VVPGY(Nitro (Y))GHAVLR_], the collision cross section worked out at 383.51 ± 0.17 Å² under setting [1] and 449.51 ± 1.1 Å² (charge state: 3, modification: Nitro (Y)).
Take “GPPRGGPGGELPR [_GPPR(Methyl (R))GGPGGELPR_]”: under setting [12], the collision cross section came out at 472.6 ± 2.6 Å².
For ASAISIKLGSSK [_ASAISIK(Crotonyl)LGSSK_], under setting [4], the collision cross section was found to be 374.63 ± 0.89 Å².
In turn, “GEKGLPGLAGDHGEFGEK [_GEKGLP(Hydroxyproline)GLAGDHGEFGEK_]” displayed a collision cross section under setting [13] of 558.56 ± 0.81 Å².
In the case of “SLFFGGKGAPLQR [_SLFFGGK(Gluratylation)GAPLQR_]”, the collision cross section is, setting by setting: under setting [14], 407.53 ± 0.99 Å²; under setting [15], 479.63 ± 1.2 Å².
As for AYDATHLVK [_AY(Phospho (Y))DATHLVK_], the collision cross section under setting [8] is reported as 354.67 ± 0.75 Å² and the collision cross section (charge state: 3, modification: Phospho (Y)) was 427.71 Å².
With DYILEGEPGK [_DY(Phospho (Y))ILEGEPGK_], the collision cross section under setting [8] is given as 357.17 ± 0.065 Å².
For the substance SLKLNTAEDAK [_SLK(Formyl)LNTAEDAK_], under setting [16], the collision cross section worked out at 369.44 ± 0.39 Å².
In the case of “VYVGNLGTGAGK [_VY(Phospho (Y))VGNLGTGAGK_]”, under setting [8], the collision cross section came to 364.53 ± 0.064 Å².
Consider “YEEIVKEVSTYIK [_YEEIVK(GlyGly (K))EVSTYIK_]”, for which the collision cross section stood at 459.86 ± 0.94 Å² under setting [9] and 512.47 ± 1.1 Å² under setting [10].
Where the note is “charge state: 3, modification: Citrullination (R)”, “AVSILPLLGHGVPRLPPGR [_AVSILPLLGHGVPR(Citrullination (R))LPPGR_]” registered a collision cross section of 569.33 Å².
Turning to “DVNAAIAAIKTK [_DVNAAIAAIK(hydroxyisobutyryl)TK_]”, the collision cross section by setting is: under setting [17], 392.68 ± 15 Å²; under setting [18], 466.43 ± 5.5 Å².
The substance “GETASKLQSEISR [_GETASK(Propionyl)LQSEISR_]” came in with a collision cross section under setting [2] of 387.23 ± 0.65 Å².
In the case of “FDDTNPEKEEAK [_FDDTNPEK(Gluratylation)EEAK_]”, the collision cross section reads like this: under setting [14], 403.46 ± 1.1 Å²; under setting [15], 440.63 Å².
Under setting [1], LELAQYR [_LELAQY(Nitro (Y))R_] returned a collision cross section of 326.89 ± 0.56 Å².
Substance RLPTTGYLVYR [_R(Methyl (R))LPTTGYLVYR_] had a collision cross section under setting [19] of 391.98 Å² and a collision cross section under setting [12] of 476.6 ± 3.2 Å².
Regarding “ITGKNQVTATK [_ITGK(hydroxyisobutyryl)NQVTATK_]”, the collision cross section under setting [17] is 372.92 ± 1.4 Å².
Turning to “SPSDSGYSYETIGKTTK [_SPSDSGYSYETIGK(hydroxyisobutyryl)TTK_]”, the collision cross section stood at 457.69 ± 0.57 Å² under setting [17] and 538.76 ± 2.8 Å² under setting [18].
The substance “LAEEENKAK [_LAEEENK(hydroxyisobutyryl)AK_]” returned a collision cross section under setting [17] of 355.52 ± 0.78 Å².
Take LTSLNVKYNNDK [_LTSLNVK(Malonyl)YNNDK_]: under setting [20], the collision cross section is 402.04 ± 0.61 Å².
In turn, “IVEKYGYTHLSAGELLR [_IVEK(Methyl (K))YGYTHLSAGELLR_]” gave a collision cross section under setting [21] of 548.39 ± 0.79 Å².
For “LFVGGIKEDTEEHHLR [_LFVGGIK(Formyl)EDTEEHHLR_]”, the collision cross section (charge state: 3, modification: Formyl) worked out at 535.03 ± 1.3 Å².
On to “LLIVSTTPYSEKDTK [_LLIVSTTPYSEK(Methyl (K))DTK_]”, for which the collision cross section runs as follows: under setting [22], 465.27 ± 2.3 Å²; under setting [21], 508.6 ± 2 Å².
Take SDDESSQKDIK [_SDDESSQK(GlyGly (K))DIK_]: the collision cross section is reported as 380.21 ± 0.89 Å² under setting [9] and 442.7 ± 0.74 Å² under setting [10].
With IQQELQTAKK [_IQQELQTAK(Formyl)K_], the collision cross section under setting [16] is on record as 369.08 ± 0.89 Å².
Regarding “ANLEKAQAELVGTADEATR [_ANLEK(Succinyl)AQAELVGTADEATR_]”, the collision cross section is, setting by setting: (charge state: 2, modification: Succinyl) 479.08 ± 0.78 Å²; (charge state: 3, modification: Succinyl) 580.29 ± 0.37 Å².
Regarding “VGTASVLQPVKK [_VGTASVLQPVK(Dimethyl (K))K_]”, the collision cross section by setting is: under setting [23], 391.72 ± 3 Å²; under setting [3], 440.56 ± 1.6 Å².
For the substance “GSLEKGSPEDK [_GSLEK(Gluratylation)GSPEDK_]”, the collision cross section under setting [14] amounted to 373.46 ± 0.99 Å².
For “ANEKTESSSAQQVAVSR [_ANEK(Malonyl)TESSSAQQVAVSR_]”, the collision cross section reads like this: under setting [20], 438.58 ± 1 Å²; (charge state: 3, modification: Malonyl) 534.15 ± 1.9 Å².
Regarding TLDEILQEKK [_TLDEILQEK(GlyGly (K))K_], the collision cross section is, setting by setting: under setting [9], 390.82 ± 2.5 Å²; under setting [10], 438.72 ± 1.6 Å².
“VDIDVPDVNIEGPDAKLK [_VDIDVPDVNIEGPDAK(hydroxyisobutyryl)LK_]” returned a collision cross section under setting [17] of 489.94 Å².
Substance VDATADYICK [_VDATADY(Phospho (Y))ICK_] registered a collision cross section under setting [8] of 366.93 ± 0.064 Å².
“PGPQPSAETTR [_P(Hydroxyproline)GPQPSAETTR_]” came in with a collision cross section under setting [13] of 412.85 Å².
Regarding “FGTINIVHPKLGSYTK [_FGTINIVHPK(hydroxyisobutyryl)LGSYTK_]”, the collision cross section by setting is: under setting [17], 477.53 ± 1.6 Å²; under setting [18], 560.61 ± 2.1 Å².
Consider “GTVPDDAVEALADSLGKK [_GTVPDDAVEALADSLGK(Trimethyl (K))K_]”, for which the collision cross section by setting is: under setting [24], 486.05 ± 4.8 Å²; under setting [25], 534.79 ± 2.4 Å².
TPNLYIYSKK [_TPNLYIYSK(Dimethyl (K))K_]: the collision cross section runs as follows: under setting [23], 376.02 ± 0.46 Å²; under setting [3], 432.06 ± 2.8 Å².
As to “VTLEVGKVIQQGR [_VTLEVGK(Methyl (K))VIQQGR_]”, the collision cross section is, setting by setting: under setting [22], 428.74 ± 1.9 Å²; under setting [21], 464.87 ± 3.7 Å².
Regarding “GDRGEIGPPGPR [_GDRGEIGPP(Hydroxyproline)GPR_]”, the collision cross section is 368.56 ± 1.9 Å² under setting [11] and 424.63 ± 1.2 Å² under setting [13].
Consider “TEVLSPNSKVESK [_TEVLSPNSK(hydroxyisobutyryl)VESK_]”, for which the collision cross section reads like this: under setting [17], 419.54 ± 0.31 Å²; under setting [18], 455.3 ± 1.9 Å².
Regarding PGTPAGYGRGR [_PGTPAGYGR(Methyl (R))GR_], the collision cross section worked out at 362.47 ± 6.7 Å² under setting [19] and 449.19 ± 8.3 Å² under setting [12].
As to “GSLGAQKLANTCFNEIEK [_GSLGAQK(Acetyl (K))LANTCFNEIEK_]”, under setting [6], the collision cross section amounted to 470.8 Å².
Consider “GEGGFGGRGGGR [_GEGGFGGR(Citrullination (R))GGGR_]”, for which the collision cross section (charge state: 2, modification: Citrullination (R)) came out at 329.76 ± 0.38 Å².
For “VYIASSSGSTAIKK [_VYIASSSGSTAIK(Butyryl)K_]”, the collision cross section came out at 422.89 ± 0.77 Å² (charge state: 2, modification: Butyryl) and 508.32 ± 2.9 Å² (charge state: 3, modification: Butyryl).
“AAQASDLEKIHLDEK [_AAQASDLEK(Trimethyl (K))IHLDEK_]”: the collision cross section was 457.14 Å² under setting [24] and 500.66 ± 1.6 Å² under setting [25].
